Measured values as given in PMC2819048.
Numbering of substitutions follows the chain as printed.

What was measured:
Test in all cases: SPR
DnaC R216A = target: T1, DnaC R216A (Escherichia coli, UniProt P0AEF0 1-245, R216A)
T1 sequence: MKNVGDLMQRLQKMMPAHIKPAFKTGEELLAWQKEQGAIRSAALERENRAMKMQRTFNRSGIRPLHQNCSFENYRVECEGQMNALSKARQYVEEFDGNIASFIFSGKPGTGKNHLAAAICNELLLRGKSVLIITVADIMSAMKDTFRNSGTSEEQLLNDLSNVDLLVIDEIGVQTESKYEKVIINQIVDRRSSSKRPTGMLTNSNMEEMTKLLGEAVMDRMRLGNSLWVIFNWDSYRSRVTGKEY

DnaC R220A = target: T2, DnaC R220A (Escherichia coli, UniProt P0AEF0 1-245, R220A)
T2 sequence: T1 sequence with A216R, R220A

DnaC = target: T3, DnaC (Escherichia coli, UniProt P0AEF0 1-245)
T3 sequence: T1 sequence with A216R

B1: 5'-biotinylated oligonucleotide (ssDNA)
DNA: CATCCAATAAATCATACACAAGGC
DnaC R216A
  binding result: binds
DnaC R220A
  binding signal: 1.7 fold stronger than without ATP
DnaC
  binding signal: ~2.4 fold stronger than without ATP
